Ends that are not written are not given here.
Each binder was assayed against Heat Shock Protein 90 (HSP90), endogenous, in human cell lines (human, UniProt P07900 2-732) (assay: cell-based or functional assay).
RLLGIC [Peptide 3 RLLGIC] was tested, and the “clonogenic survival of UMSCC1 cells (Survival Fraction), peptide delivered with Chariot” value was 0.85 survival fraction. NHVPSDVC (not fully specified) [Peptide 8 NHVPSDVC (scrambled peptide)] was tested, and the “clonogenic survival of UMSCC1 cells (Survival Fraction), peptide delivered with Chariot” value was 1 survival fraction. SVDNPHVC (not fully specified) [Peptide 2 SVDNPHVC (Disruptin)] was tested, and the “clonogenic survival of UMSCC1 cells (Survival Fraction), peptide delivered with Chariot” value was 0.77 survival fraction. DEAYVMA [Peptide 1 DEAYVMA] was tested, and the “clonogenic survival of UMSCC1 cells (Survival Fraction), peptide delivered with Chariot” value was 0.93 survival fraction. For DEAYVMAGVGSPYVSRLLGIC [Peptide 6 DEAYVMAGVGSPYVSRLLGIC], the “clonogenic survival of UMSCC1 cells (Survival Fraction), peptide delivered with Chariot” value was 1 survival fraction. For SVGNPHVC [Peptide 7 SVGNPHVC], the “clonogenic survival of UMSCC1 cells (Survival Fraction), peptide delivered with Chariot” value was 0.97 survival fraction. GVGSPYVS [Peptide 4 GVGSPYVS] was tested, and the “clonogenic survival of UMSCC1 cells (Survival Fraction), peptide delivered with Chariot” value was 1 survival fraction.
